According to IntAct's records for PubMed 35512704:

B1: Mothers against decapentaplegic homolog 4 (Homo sapiens), Q13485 (parent)
chain: MDNMSITNTPTSNDACLSIVHSLMCHRQGGESETFAKRAIESLVKKLKEKKDELDSLITAITTNGAHPSKCVTIQRTLDGRLQVAGRKGFPHVIYARLWRWPDLHKNELKHVKYCQYAFDLKCDSVCVNPYHYERVVSPGIDLSGLTLQSNAPSSMMVKDEYVHDFEGQPSLSTEGHSIQTIQHPPSNRASTETYSTPALLAPSESNATSTANFPNIPVASTSQPASILGGSHSEGLLQIASGPQPGQQQNGFTGQPATYHHNSTTTWTGSRTAPYTPNLPHHQNGHLQHHPPMPPHPGHYWPVHNELAFQPPISNHPAPEYWCSIAYFEMDVQVGETFKVPSSCPIVTVDGYVDPSGGDRFCLGQLSNVHRTEAIERARLHIGKGVQLECKGEGDVWVRCLSDHAVFVQSYYLDREAGRAPGDAVHKIYPSAYIKVFDLRQCHRQMQQQAATAQAAAAAQAAAVAGNIPGPGSVGGIAPAISLSAAAGIGVDDLRRLCILRMSFVKGWGPDYPRQSIKETPCWIEIHLHRALQLLDEVLHTMPIADPQPLD
partner: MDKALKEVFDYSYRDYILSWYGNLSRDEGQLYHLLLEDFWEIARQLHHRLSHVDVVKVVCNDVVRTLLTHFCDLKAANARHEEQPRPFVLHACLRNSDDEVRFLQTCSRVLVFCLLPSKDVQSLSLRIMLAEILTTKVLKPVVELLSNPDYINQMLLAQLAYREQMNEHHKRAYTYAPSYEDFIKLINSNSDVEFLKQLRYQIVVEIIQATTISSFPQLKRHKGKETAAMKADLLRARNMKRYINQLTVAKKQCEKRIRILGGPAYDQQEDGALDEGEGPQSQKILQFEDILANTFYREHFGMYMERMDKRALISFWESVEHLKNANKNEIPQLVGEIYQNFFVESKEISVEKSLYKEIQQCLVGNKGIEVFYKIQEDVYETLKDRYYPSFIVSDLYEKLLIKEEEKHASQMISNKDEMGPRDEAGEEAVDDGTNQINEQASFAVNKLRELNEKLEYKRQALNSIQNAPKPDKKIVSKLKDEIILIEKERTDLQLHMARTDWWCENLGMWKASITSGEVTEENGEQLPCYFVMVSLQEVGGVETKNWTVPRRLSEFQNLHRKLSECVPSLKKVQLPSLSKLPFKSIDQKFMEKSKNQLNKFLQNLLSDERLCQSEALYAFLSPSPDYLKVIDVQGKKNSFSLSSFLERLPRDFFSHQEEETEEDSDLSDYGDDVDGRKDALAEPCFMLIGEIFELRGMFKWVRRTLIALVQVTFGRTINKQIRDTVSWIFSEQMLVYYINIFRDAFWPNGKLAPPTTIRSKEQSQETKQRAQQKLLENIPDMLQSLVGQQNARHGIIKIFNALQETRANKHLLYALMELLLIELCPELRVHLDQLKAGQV
B2: Speckle-type POZ protein (Homo sapiens), O43791 (parent)
chain: MSRVPSPPPPAEMSSGPVAESWCYTQIKVVKFSYMWTINNFSFCREEMGEVIKSSTFSSGANDKLKWCLRVNPKGLDEESKDYLSLYLLLVSCPKSEVRAKFKFSILNAKGEETKAMESQRAYRFVQGKDWGFKKFIRRDFLLDEANGLLPDDKLTLFCEVSVVQDSVNISGQNTMNMVKVPECRLADELGGLWENSRFTDCCLCVAGQEFQAHKAILAARSPVFSAMFEHEMEESKKNRVEINDVEPEVFKEMMCFIYTGKAPNLDKMADDLLAAADKYALERLKVMCEDALCSNLSVENAAEILILADLHSADQLKTQAVDFINYHASDVLETSGWKSMVVSHPHLVAEAYRSLASAQCPFLGPPRKRLKQS
partner: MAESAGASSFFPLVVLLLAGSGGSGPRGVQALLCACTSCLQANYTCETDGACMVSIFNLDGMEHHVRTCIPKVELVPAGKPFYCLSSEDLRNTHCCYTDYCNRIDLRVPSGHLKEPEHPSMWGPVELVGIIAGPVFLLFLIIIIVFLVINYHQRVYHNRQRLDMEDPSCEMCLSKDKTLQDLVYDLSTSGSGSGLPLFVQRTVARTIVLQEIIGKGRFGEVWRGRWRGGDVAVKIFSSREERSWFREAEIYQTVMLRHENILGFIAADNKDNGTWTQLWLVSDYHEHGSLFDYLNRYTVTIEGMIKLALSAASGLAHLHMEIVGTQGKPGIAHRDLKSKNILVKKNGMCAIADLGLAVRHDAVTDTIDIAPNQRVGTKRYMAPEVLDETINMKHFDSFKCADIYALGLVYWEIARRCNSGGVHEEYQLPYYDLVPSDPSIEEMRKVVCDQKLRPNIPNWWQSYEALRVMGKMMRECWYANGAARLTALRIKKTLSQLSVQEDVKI
B3: Mothers against decapentaplegic homolog 4 (Homo sapiens), Q13485 (parent)
chain: B1 chain
partner: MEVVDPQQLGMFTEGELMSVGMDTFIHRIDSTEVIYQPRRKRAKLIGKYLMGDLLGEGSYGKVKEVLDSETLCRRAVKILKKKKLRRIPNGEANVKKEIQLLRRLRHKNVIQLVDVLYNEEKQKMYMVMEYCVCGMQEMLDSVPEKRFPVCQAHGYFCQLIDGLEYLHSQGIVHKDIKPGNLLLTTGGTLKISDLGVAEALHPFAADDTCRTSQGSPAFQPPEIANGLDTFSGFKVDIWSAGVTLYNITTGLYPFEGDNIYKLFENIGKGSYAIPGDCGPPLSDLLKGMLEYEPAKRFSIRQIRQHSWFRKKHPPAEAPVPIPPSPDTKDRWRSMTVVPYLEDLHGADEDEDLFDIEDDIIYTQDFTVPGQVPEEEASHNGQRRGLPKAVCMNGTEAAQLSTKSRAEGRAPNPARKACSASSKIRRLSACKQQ
B4: Mothers against decapentaplegic homolog 4 (Homo sapiens), Q13485 (parent)
chain: B1 chain
partner: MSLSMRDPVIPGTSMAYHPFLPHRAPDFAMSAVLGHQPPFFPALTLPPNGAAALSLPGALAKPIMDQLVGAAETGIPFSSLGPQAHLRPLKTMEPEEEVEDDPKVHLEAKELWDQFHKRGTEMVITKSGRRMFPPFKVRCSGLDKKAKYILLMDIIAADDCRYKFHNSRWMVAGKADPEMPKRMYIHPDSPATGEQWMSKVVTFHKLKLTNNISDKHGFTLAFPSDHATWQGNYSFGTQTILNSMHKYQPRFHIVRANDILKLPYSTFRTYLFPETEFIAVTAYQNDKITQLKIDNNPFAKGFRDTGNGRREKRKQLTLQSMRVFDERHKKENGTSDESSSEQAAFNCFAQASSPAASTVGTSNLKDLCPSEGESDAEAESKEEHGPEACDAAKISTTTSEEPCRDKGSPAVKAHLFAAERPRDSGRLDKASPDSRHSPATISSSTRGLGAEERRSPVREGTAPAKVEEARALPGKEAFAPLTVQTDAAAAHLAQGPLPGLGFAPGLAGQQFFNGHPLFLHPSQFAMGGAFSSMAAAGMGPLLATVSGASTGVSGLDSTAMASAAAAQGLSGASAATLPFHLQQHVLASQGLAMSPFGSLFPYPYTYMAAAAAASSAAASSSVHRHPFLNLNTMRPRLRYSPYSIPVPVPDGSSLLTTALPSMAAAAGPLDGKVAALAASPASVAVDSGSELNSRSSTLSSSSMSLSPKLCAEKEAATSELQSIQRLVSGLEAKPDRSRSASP

Variants of: B1
Conditions: with snx25_human SNX25, Q9H3E2

Row | effect of a mutation on the interaction | Variant
1 | with no effect | R361H

Variants of: B1
Conditions: with snx25_human SNX25, Q9H3E2
Remark: another data set of the same source

Row | effect of a mutation on the interaction | Variant
2 | with no effect | G386D

Variants of: B2
Conditions: with acv1b_human ACVR1B

Row | effect of a mutation on the interaction | Variant
3 | with no effect | MSRVPSPPPPAEMSSGPVAESWCYTQIKVVKFSYMWTINNFSFCREEMGEVIKSSTFSSGANDKLKWCLRVNPKGLDEESKDYLSLYLLLVSCPKSEVRAKFKFSILNAKGEETKAMESQRAYRFVQGKDWGVKKFIRRDFLLDEANGLLPDDKLTLFCEVSVVQDSVNISGQNTMNMVKVPECRLADELGGLWENSRFTDCCLCVAGQEFQAHKAILAARSPVFSAMFEHEMEESKKNRVEINDVEPEVFKEMMCFIYTGKAPNLDKMADDLLAAADKYALERLKVMCEDALCSNLSVENAAEILILADLHSADQLKTQAVDFINYHASDVLETSGWKSMVVSHPHLVAEAYRSLASAQCPFLGPPRKRLKQS [F133V]

Variants of: B2
Conditions: with acv1b_human ACVR1B
Remark: another data set of the same source

Row | effect of a mutation on the interaction | Variant
4 | with no effect | MSRVPSPPPPAEMSSGPVAESWCYTQIKVVKFSYMWTINNFSFCREEMGEVIKSSTFSSGANDKLKWCLRVNPKGLDEESKDYLSLYLLLVSCPKSEVRAKFKFSILNAKGEETKAMESQRAYRFVQGKDWGLKKFIRRDFLLDEANGLLPDDKLTLFCEVSVVQDSVNISGQNTMNMVKVPECRLADELGGLWENSRFTDCCLCVAGQEFQAHKAILAARSPVFSAMFEHEMEESKKNRVEINDVEPEVFKEMMCFIYTGKAPNLDKMADDLLAAADKYALERLKVMCEDALCSNLSVENAAEILILADLHSADQLKTQAVDFINYHASDVLETSGWKSMVVSHPHLVAEAYRSLASAQCPFLGPPRKRLKQS [F133L]

Variants of: B2
Conditions: with acv1b_human ACVR1B
Remark: another data set of the same source

Row | effect of a mutation on the interaction | Variant
5 | with no effect | MSRVPSPPPPAEMSSGPVAESWCYTQIKVVKFSYMWTINNFSFCREEMGEVIKSSTFSSGANDKLKWCLRVNPKGLDEESKDYLSLCLLLVSCPKSEVRAKFKFSILNAKGEETKAMESQRAYRFVQGKDWGFKKFIRRDFLLDEANGLLPDDKLTLFCEVSVVQDSVNISGQNTMNMVKVPECRLADELGGLWENSRFTDCCLCVAGQEFQAHKAILAARSPVFSAMFEHEMEESKKNRVEINDVEPEVFKEMMCFIYTGKAPNLDKMADDLLAAADKYALERLKVMCEDALCSNLSVENAAEILILADLHSADQLKTQAVDFINYHASDVLETSGWKSMVVSHPHLVAEAYRSLASAQCPFLGPPRKRLKQS [Y87C]

Variants of: B2
Conditions: with acv1b_human ACVR1B
Remark: another data set of the same source

Row | effect of a mutation on the interaction | Variant
6 | with no effect | MSRVPSPPPPAEMSSGPVAESWCYTQIKVVKFSYMWTINNFSFCREEMGEVIKSSTFSSGANDKLKWCLRVNPKGLDEESKDYLSLYLLLVSCPKSEVRAKCKFSILNAKGEETKAMESQRAYRFVQGKDWGFKKFIRRDFLLDEANGLLPDDKLTLFCEVSVVQDSVNISGQNTMNMVKVPECRLADELGGLWENSRFTDCCLCVAGQEFQAHKAILAARSPVFSAMFEHEMEESKKNRVEINDVEPEVFKEMMCFIYTGKAPNLDKMADDLLAAADKYALERLKVMCEDALCSNLSVENAAEILILADLHSADQLKTQAVDFINYHASDVLETSGWKSMVVSHPHLVAEAYRSLASAQCPFLGPPRKRLKQS [F102C]

Variants of: B3
Conditions: with stk11_human STK11, Q15831

Row | effect of a mutation on the interaction | Variant
7 | with no effect | G386D

Variants of: B4
Conditions: with tbx3_human TBX3, O15119

Row | effect of a mutation on the interaction | Variant
8 | with no effect | R361C
